This passage reports steady-state ATPase activity of mtHsp60^V72I (500 nM monomer) against mtHsp10 (twofold series from 10 µM monomer); ~21 pmol ATP per min without mtHsp10 results from paper PMC11638070.

The target in this assay is mitochondrial heat shock protein 60 V72I (mtHsp60^V72I) (human) (UniProt P10809).

Substance “mtHsp10 (from UniProt P61604 1-102) (natural protein)” came in with a steady-state ATPase activity of mtHsp60^V72I (500 nM monomer) against mtHsp10 (twofold series from 10 µM monomer); ~21 pmol ATP per min without mtHsp10 of 31 pmol/min.
